Non-standard residues stand in square brackets, D forms with d. No end group written: not given here. allyl‑C = allyl-modified terminal Cys; allyl‑K = allyl-modified terminal Lys
Tests used:
[1] = target: T1, CD59 (Homo sapiens, UniProt P13987); test: CD59 binding to hu C9 peptide 359–384, microtiter plate assay with biotin-CD59; conditions: microplate; corrected for nonspecific binding with 20-fold excess unlabeled CD59
T1 construct: human erythrocyte membrane glycoprotein CD59 were purified; from tissue; host or cells: human erythrocyte membranes (CD59); synthetic peptide custom ordered from Quality Controlled Biochemicals
T1 sequence (P13987 26-102): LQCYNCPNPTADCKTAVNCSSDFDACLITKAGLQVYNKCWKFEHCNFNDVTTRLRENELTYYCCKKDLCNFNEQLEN
Procedure: Biotin-CD59—CD59 was biotinylated by incubation (1 h, room temperature) with a 20-fold molar excess of NHS-LC-biotin in 10 mM MOPS, 0.1% Nonidet P-40, pH 9.0 followed by exhaustive dialysis against charcoal, as described by Chang, et al. J. Biol. Chem. 269, 26424–26430 (1994).
CD59 binding to hu C9 peptide 359–384—The specific binding of CD59 to hu C9-derived peptide 359–384 was measured by microtiter plate assay with biotin-CD59, according to modification of published methods of Chang, et al. (1994) and Husler, et al. (1995). Briefly, the BSA-peptide conjugate was adsorbed to 96 well polyvinyl microplates by overnight coating at 5 μg/ml in 0.1 M sodium bicarbonate, pH 8.5. After blocking with 1% (w/v) BSA, wells were washed and incubated (4 hrs., 37° C.) with between 0.5 and 1 μg/ml biotin-CD59. After washing, the bound biotin-CD59 was detected with Vectastain (Vector Labs, Burlingame, Calif.), developed by addition of p-nitrophenyl phosphate (2 mg/ml) and optical density recorded at 405 nm (VMaxMicroplate Reader, Molecular Devices, Inc.). In all experiments, correction was made for background adsorption of biotin-CD59 to BSA-coated wells (no peptide) and for nonspecific binding of biotin-CD59 to peptide, determined in the presence of a 20-fold excess of unlabeled CD59. […]

[2] = system: chE containing membrane C5b-8; test: Hemolytic titration of recombinant C9 constructs against chE containing membrane C5b-8; type: cell-based, chicken
Procedure: Analysis of the inhibitory function of CD 59 towards recombinant C9 constructs—Hemolytic activity of each C9 construct was assayed using as target cells chE that were reconstituted with purified hu CD59, as described by Husler, et al., (1995). chE were washed extensively and suspended in GVBS, and the membrane C5b67 complex assembled by mixing cells (1.4×10^9/ml) with C5b6 (13 μg/ml) followed by addition of C7 (1 μg/ml). After 10 min., the C5b67 chE were diluted to 1.4×10^8/ml in GVBE and incubated (10 min. 37° C.) with 0 or 750 ng/ml CD59. In each case, the final concentration of Nonidet P-40 was less than 0.002% (v/v). After washing in ice-cold GVBE, 2.8×10^8 of these cells were incubated (37° C.) in a total volume of 100 μl with 1 ng rb C8 plus, between zero and 50 ng of recombinant C9, serially diluted in Opti-MEM I. Hemolysis was determined after 30 minutes at 37° C., with correction for nonspecific lysis, determined in the absence of C9. In each experiment, the inhibitory activity of CD59 towards each recombinant C9 construct was determined from the reduction in complement lysis of those cells reconstituted with CD59, versus the identically-treated cells omitting CD59, measured at the midpoint of the C9 titration (i.e., 50% hemolysis). […]

[3] = target: T2, hu CD59 (Homo sapiens, UniProt P13987); test: Inhibitory function of CD59 towards recombinant C9 constructs (hemolysis of C5b-8 chE with or without membrane CD59); type: cell-based; conditions: chE with hu C5b67 and rb C8, 0 or 750 ng/ml CD59; compared with hu C9 and rb C9
T2 construct: human erythrocyte membrane glycoprotein CD59 were purified; from tissue; host or cells: human erythrocyte membranes
T2 sequence (P13987 26-102): T1 sequence (P13987 26-102)
Procedure: Analysis of the inhibitory function of CD 59 towards recombinant C9 constructs—Hemolytic activity of each C9 construct was assayed using as target cells chE that were reconstituted with purified hu CD59, as described by Husler, et al., (1995). chE were washed extensively and suspended in GVBS, and the membrane C5b67 complex assembled by mixing cells (1.4×10^9/ml) with C5b6 (13 μg/ml) followed by addition of C7 (1 μg/ml). After 10 min., the C5b67 chE were diluted to 1.4×10^8/ml in GVBE and incubated (10 min. 37° C.) with 0 or 750 ng/ml CD59. In each case, the final concentration of Nonidet P-40 was less than 0.002% (v/v). After washing in ice-cold GVBE, 2.8×10^8 of these cells were incubated (37° C.) in a total volume of 100 μl with 1 ng rb C8 plus, between zero and 50 ng of recombinant C9, serially diluted in Opti-MEM I. Hemolysis was determined after 30 minutes at 37° C., with correction for nonspecific lysis, determined in the absence of C9. In each experiment, the inhibitory activity of CD59 towards each recombinant C9 construct was determined from the reduction in complement lysis of those cells reconstituted with CD59, versus the identically-treated cells omitting CD59, measured at the midpoint of the C9 titration (i.e., 50% hemolysis). In order to directly compare results obtained in experiments performed on different days, data for each recombinant C9 construct were normalized to results obtained in each experiment with hu C9.

[4] = target: T3, C5b-9 assembled from rb C8 and C9 (Oryctolagus cuniculus, UniProt P48747+P98136); test: Assay of MAC inhibitory function of recombinant CD59 on transfected SV-T2 cells, rb C8 and C9; type: cell-based, rabbit; conditions: CD59 construct expressed on SV-T2 cells; hu C5b67, 4 μM rb C8 and 5 μM rb C9; BCECF dye release
T3 construct: rabbit complement proteins C8 and C9 were purified; from tissue; host or cells: rabbit serum/plasma (C8, C9); C8-depleted human serum (C5b67)
Procedure: Expression of CD59 constructs in SV-T2 cells—SV-T2 cells were transfected with hu, rb, or chimeric TAG-CD59 pcDNA3 by electroporation as previously described (Zhou, Q., Zhao, J., Hüsler, T., and Sims, P. J. (1996) Mol. Immunol. 33, 1127–1134). After 48 hr, stable transfectants were selected with DMEM complete medium containing 1 mg/ml geneticin for 10 days. If episomal replication in the transfected cells was desired, 8×10^6 SV-T2 cells were transfected with 120 μg plasmid DNA by electroporation using GENE PULSE™ (Bio-rad) at 360 V and 500 μF (Zhou, Q., Zhao, J., Hüsler, T., and Sims, P. J. (1996) Mol. Immunol. 33, 1127–1134). Geneticin-selected cells were stained with mAb 9E10 against TAG epitope followed by FITC-conjugated goat antibody against mouse IgG, and sorted by flow cytometry (FACStar Plus; Becton Dickinson). Individual clones were then obtained by limiting dilution in DMEM containing 0.5 mg/ml geneticin. […]
Measurement of cell surface TAG-CD59—The cell surface expression of each TAG-CD59 construct in transfected SV-T2 cells was quantified by the binding at saturation of mAb 9E10 (against TAG epitope) as previously described by Zhou, Q., Zhao, J., Hüsler, T., and Sims, P. J. (1996) Mol. Immunol. […] The fluorescence was determined by flow cytometry (FACScan, Becton Dickinson) as described previously by Zhou, Q., Zhao, J., Hüsler, T., and Sims, P. J. (1996) Mol. Immunol. […]

[5] = target: T4, hu C5b-9 (hu C5b67 with hu C8 and hu C9) (Homo sapiens, UniProt P02748+P07357); test: Assay of MAC inhibitory function of recombinant CD59 on transfected SV-T2 cells, hu C8 and C9; type: cell-based; conditions: CD59 construct expressed on SV-T2 cells; hu C5b67, 2 μM hu C8 and 5 μM hu C9; BCECF dye release
T4 construct: human complement proteins (C5b7, C8 and C9) and rabbit complement proteins C8 and C9 were purified; from tissue; host or cells: human serum/plasma (C8 and C9 purified; C5b67 deposited from C8-depleted human serum)
Procedure: Expression of CD59 constructs in SV-T2 cells—SV-T2 cells were transfected with hu, rb, or chimeric TAG-CD59 pcDNA3 by electroporation as previously described (Zhou, Q., Zhao, J., Hüsler, T., and Sims, P. J. (1996) Mol. Immunol. 33, 1127–1134). After 48 hr, stable transfectants were selected with DMEM complete medium containing 1 mg/ml geneticin for 10 days. If episomal replication in the transfected cells was desired, 8×10^6 SV-T2 cells were transfected with 120 μg plasmid DNA by electroporation using GENE PULSE™ (Bio-rad) at 360 V and 500 μF (Zhou, Q., Zhao, J., Hüsler, T., and Sims, P. J. (1996) Mol. Immunol. 33, 1127–1134). Geneticin-selected cells were stained with mAb 9E10 against TAG epitope followed by FITC-conjugated goat antibody against mouse IgG, and sorted by flow cytometry (FACStar Plus; Becton Dickinson). Individual clones were then obtained by limiting dilution in DMEM containing 0.5 mg/ml geneticin. Comparison was made to clonal cell lines derived by transfection with pcDNA3, lacking insert (vector-only controls).
Measurement of cell surface TAG-CD59—The cell surface expression of each TAG-CD59 construct in transfected SV-T2 cells was quantified by the binding at saturation of mAb 9E10 (against TAG epitope) as previously described by Zhou, Q., Zhao, J., Hüsler, T., and Sims, P. J. (1996) Mol. Immunol. 33, 1127–1134. Following growth to near confluence, cells were detached and incubated for 30 min at 23° C. with mAb 9E10 (100 μg/ml) in HBSS containing 1% BSA. After washing with HBSS containing 1% BSA, the cells were incubated (20 min at 23° C.) with FITC conjugated goat anti-mouse IgG at a final concentration of 10 μg/ml. The fluorescence was determined by flow cytometry (FACScan, Becton Dickinson) as described previously by Zhou, Q., Zhao, J., Hüsler, T., and Sims, P. J. (1996) Mol. Immunol. 33, 1127–1134.
Assay of MAC inhibitory function—The complement-inhibitory activity of recombinant CD59 expressed on the transfected SV-T2 cells was evaluated by minor modification of methods previously described (Zhou, Q., Zhao, J., Hüsler, T., and Sims, P. J. (1996) Mol. Immunol. 33, 1127–1134, and Zhao, J., Rollins, S. A., Maher, S. E., Bothwell, A. L., and Sims, P. J. (1991) J. Biol. Chem. 266, 13418–13422). For cell clones expressing each chimeric CD59 construct, huC5b67 was deposited on the plasma membrane and susceptibility to the lytic activity of either hu C8 and C9 or rb C8 and C9 was measured and compared to identically-treated clones expressing wild-type hu or rb CD59. […] MAC-mediated cell lysis was determined from the measured release of BCECF dye from the cytoplasm, with correction for non-specific dye leak from matched controls omitting C8 and C9, as previously described by Zhou, Q., Zhao, J., Hüsler, T., and Sims, P. J. (1996) Mol. Immunol. […]

Molecule: [allyl-K]-CLGYHLDVSLAFSEISVGAEFNKDD-[allyl-C] ([allyl‑K]CLGYHLDVSLAFSEISVGAEFNKDD[allyl‑C]; not fully specified; printed as [allyl-K]-CLGYHLDVSLAFSEISVGAEFNKDD-[allyl-C]) [C9 peptide 359–384]
- specific binding of biotin-CD59 to the BSA-coupled peptide [1]: specifically bound

Molecule: Mutant hu C9: recombinant hu C9 expressed with Ala substitutions at Cys359 and Cys384
- hemolytic activity of the C9 construct [2]: did not significantly affect
- sensitivity of the C9 construct to inhibition of MAC lytic activity by membrane CD59 [3]: did not significantly affect

B1: hu CD59: Human CD59 antigen, 18–21 kDa plasma membrane protein, inhibitor of the C5b-9 membrane attack complex; expressed recombinantly with TAG (protein, UniProt P13987 26-102, looked up)
CD59 glycoprotein: T1 sequence (P13987 26-102)
modifications: TAG epitope tag
- MAC-inhibitory function towards C5b-9 assembled with rb C8 and C9 (protection from lysis) [4]: protective effect of hu CD59 was not observed
- MAC-inhibitory function towards hu C5b-9 (protection from lysis) [5]: nearly completely protected from lysis by hu C5b-9

— patent US7166568B1, “Compositions and methods to inhibit formation of the C5b-9 complex of complement” (Oklahoma Medical Research Foundation, priority 1998, dated 2007)
